Experiments:
Human TNFα [1] = target: T1, Human TNFα (Homo sapiens, UniProt P01375); assay: FACS assay with HEK Jumpin cells overexpressing TNF-RI, receptor-bound TNFα; assay type: cell-based; parameters: host or cells: HEK Jumpin cells (carry the TNF-RI; conditions: antibody at 1 and 10 μg/ml; TNFα pre-incubated with compound (1) or DMSO control
Experimental: HEK cells were trypsinised and incubated for 2 h in medium to allow recovery of digested TNFRI levels.
Target sequence in this assay (P01375 77-233 limits assumed): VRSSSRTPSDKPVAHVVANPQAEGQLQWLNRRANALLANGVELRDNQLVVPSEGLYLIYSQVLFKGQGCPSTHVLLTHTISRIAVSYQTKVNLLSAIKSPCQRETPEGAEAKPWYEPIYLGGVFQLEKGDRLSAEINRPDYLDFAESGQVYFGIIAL
Target sequence in this assay (P19438 22-455 partner limits assumed): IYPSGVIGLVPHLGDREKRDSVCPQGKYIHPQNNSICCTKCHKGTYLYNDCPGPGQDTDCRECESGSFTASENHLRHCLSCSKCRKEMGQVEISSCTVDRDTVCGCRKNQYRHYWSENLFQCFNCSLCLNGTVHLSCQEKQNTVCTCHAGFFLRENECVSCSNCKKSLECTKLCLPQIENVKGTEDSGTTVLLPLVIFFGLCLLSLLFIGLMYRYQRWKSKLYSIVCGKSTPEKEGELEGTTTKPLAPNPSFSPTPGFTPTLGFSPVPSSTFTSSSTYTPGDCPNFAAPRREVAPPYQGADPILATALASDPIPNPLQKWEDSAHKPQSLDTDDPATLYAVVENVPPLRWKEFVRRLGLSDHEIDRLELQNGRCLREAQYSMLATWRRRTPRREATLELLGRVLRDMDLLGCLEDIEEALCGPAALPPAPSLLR

[2] = target: human TNFα complexed with compound (1) (Homo sapiens, UniProt P01375); assay: Size exclusion chromatography (HPLC) of mouse Fab with TNFα-compound complex; assay type: binding; conditions: Fab at 0.5×-2× molar excess
Chain of human TNFα complexed with compound (1) (P01375 77-233 limits assumed, one chain of several): as the sequence (P01375 77-233 limits assumed) above

Human TNFα [3] = target: T1, Human TNFα; assay: BIAcore surface plasmon resonance, captured IgG, human TNFα +/− test compound; assay type: binding; parameters: Soluble form of human TNFα; made in house
Experimental: (§1) Surface plasmon resonance was performed at 25° C. using a BIAcore T200 (GE Healthcare). Anti-Mouse Fc (Jackson 115-006-071) was immobilised on a […] Sensor Chip (GE Healthcare) via amine coupling chemistry to a capture level of 6000 response units. HBS-EP buffer (10 mM HEPES pH 7.4, 0.15 M NaCl, 3 mM EDTA, 0.05% (v/v) surfactant P20—GE Healthcare)+1% DMSO was used as the running buffer.
(§2) The surface was regenerated at a flow-rate of […] by a 60 s injection of 40 mM HCl×2 and a 30 s 5 mM NaOH. Double referenced background subtracted binding curves were analysed using the T200 Evaluation software (version 1.0) following standard procedures. Kinetic parameters were determined from the fitting algorithm.
Target sequence in this assay (P01375 with tags, fused parts or gaps): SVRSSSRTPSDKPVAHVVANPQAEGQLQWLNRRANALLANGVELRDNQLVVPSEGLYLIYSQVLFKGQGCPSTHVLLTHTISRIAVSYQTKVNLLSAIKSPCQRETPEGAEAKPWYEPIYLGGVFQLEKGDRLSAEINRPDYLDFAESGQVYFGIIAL

Mouse TNFα = target: T2, Mouse TNFα (Mus musculus, UniProt P06804); assay: BIAcore surface plasmon resonance, captured IgG, mouse TNFα +/− test compound; assay type: binding
T2 construct: made in house
T2 sequence (P06804 80-235 limits assumed): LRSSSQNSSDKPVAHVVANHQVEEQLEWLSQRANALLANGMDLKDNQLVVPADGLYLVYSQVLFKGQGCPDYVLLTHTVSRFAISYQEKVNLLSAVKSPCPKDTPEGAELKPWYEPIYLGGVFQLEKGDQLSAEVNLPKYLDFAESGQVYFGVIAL
Experimental: as §1, §2

membrane TNFα = assay: FACS assay with engineered NS0 cell line overexpressing membrane TNFα; assay type: cell-based; conditions: Fab fragments; NS0 cells incubated with compound (1) or DMSO control
Chain of membrane TNFα (P01375 89-233 limits assumed): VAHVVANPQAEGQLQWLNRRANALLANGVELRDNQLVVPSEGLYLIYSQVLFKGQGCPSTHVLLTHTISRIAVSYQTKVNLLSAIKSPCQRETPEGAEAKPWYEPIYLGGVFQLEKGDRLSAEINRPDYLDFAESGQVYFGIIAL
Experimental: An engineered NS0 cell line, which overexpresses membrane TNFα, due to knock-out of the TACE cleavage site was incubated with 0.001-10 μM compound (1) or 0.1% DMSO for 1 h at 37° C. Cells were washed, fixed and stained with antibody Fab fragments at 0.01 or 0.1 μg/ml for 1 hour on ice. (Secondary antibody was anti-mouse Fab-DyeLight488 from Jackson ImmunoResearch).
There is no staining with the DMSO controls.

B1: CA185_01979: rat-derived conformation-selective antibody to compound-bound TNFα; LCVR SEQ ID NO: 22, HCVR SEQ ID NO: 23 (antibody, V domains shown)
VH: EVHLVESGPGLVKPSQSLSLTCSVTGYSITNSYWDWIRKFPGNKMEWMGYINYSGSTGYNPSLKSRISISRDTSNNQFFLQLNSITTEDTATYYCARGTYGYNAYHFDYWGRGVMVTVSS
VL: DIQMTQSPASLSASLEEIVTITCQASQDIGNWLSWYQQKPGKSPHLLIYGTTSLADGVPSRFSGSRSGTQYSLKISGLQVADIGIYVCLQAYSTPFTFGSGTKLEIK
modifications: HCVR of 1979; DIQMTQSPASLSASLEEIVTITCQASQDIGNWLSWYQQKPGKSPHLLIYGTTSLADGVPSRFSGS RSGTQYSLKISGLQVADIGIYVCLQAYSTPFTFGSGTKLEIK
FACS staining of receptor-bound TNFα (Human TNFα [1]): only recognise TNFα which has been pre-incubated with compound (1) | stoichiometry of Fab binding to TNFα trimer [2]: 1 Fab: 1 TNFα trimer | ka (Human TNFα [3]; Human TNFα + compound (1)): 470000 M⁻¹ s⁻¹ | kd (Human TNFα [3]; Human TNFα + compound (1)): 1.6e-05 s⁻¹ | ka (Human TNFα [3]; Human TNFα + compound (2)): 570000 M⁻¹ s⁻¹ | kd (Human TNFα [3]; Human TNFα + compound (2)): 3.3e-05 s⁻¹ | ka (Human TNFα [3]; Human TNFα apo): 110000 M⁻¹ s⁻¹ | kd (Human TNFα [3]; Human TNFα apo): 0.00071 s⁻¹ | Kd (Mouse TNFα; Mouse TNFα + compound (1)): 0.38 nM | ka (Mouse TNFα; Mouse TNFα + compound (1)): 160000 M⁻¹ s⁻¹ | kd (Mouse TNFα; Mouse TNFα + compound (1)): 6.3e-05 s⁻¹ | ka (Mouse TNFα; Mouse TNFα + compound (2)): 190000 M⁻¹ s⁻¹ | kd (Mouse TNFα; Mouse TNFα + compound (2)): 3.5e-05 s⁻¹ | Kd (Mouse TNFα; Mouse TNFα apo): 27 nM | ka (Mouse TNFα; Mouse TNFα apo): 72000 M⁻¹ s⁻¹ | kd (Mouse TNFα; Mouse TNFα apo): 0.002 s⁻¹ | FACS staining of membrane-bound TNFα (membrane TNFα): only recognise TNF which has been pre-incubated with compound (1)

From patent publication US20210132079A1, “ANTIBODY” (UCB Biopharma SRL, priority 2015, published 2021)
